{"source": "patent US20180112202A1", "about": "(ACE BIOSCIENCES A S, published 2018)", "proteins": {"B1": {"name": "recombinant human Galactocerebroside beta-Galactosidase (rhGALC), full length 80 kDa form (enzyme)", "chain": "YVLDDSDGLGREFDGIGAVSGGGATSRLLVNYPEPYRSQILDYLFKPNFGASLHILKVEIGGDGQTTDGTEPSHMHYALDENYFRGYEWWLMKEAKKRNPNITLIGLPWSFPGWLGKGFDWPYVNLQLTAYYVVTWIVGAKRYHDLDIDYIGIWNERSYNANYIKILRKMLNYQGLQRVKIIASDNLWESISASMLLDAELFKVVDVIGAHYPGTHSAKDAKLTGKKLWSSEDFSTLNSDMGAGCWGRILNQNYINGYMTSTIAWNLVASYYEQLPYGRCGLMTAQEPWSGHYVVESPVWVSAHTTQFTQPGWYYLKTVGHLEKGGSYVALTDGLGNLTIIIETMSHKHSKCIRPFLPYFNVSQQFATFVLKGSFSEIPELQVWYTKLGKTSERFLFKQLDSLWLLDSDGSFTLSLHEDELFTLTTLTTGRKGSYPLPPKSQPFPSTYKDDFNVDYPFFSEAPNFADQTGVFEYFTNIEDPGEHHFTLRQVLNQRPITWAADASNTISIIGDYNWTNLTIKCDVYIETPDTGGVFIAGRVNKGGILIRSARGIFFWIFANGSYRVTGDLAGWIIYALGRVEVTAKKWYTLTLTIKGHFASGMLNDKSLWTDIPVNFPKNGWAAIGTHSFEFAQFDNFLVEATR", "modifications": "glycosylated (about 7% carbohydrate w:w, 2-3 mol mannose-6-phosphate per mol), sites not stated", "notes": "Expressed in CHO cells and purified from harvest; P45803 looks like a misprint; also called Galactocerebrosidase; Galactosylceramidase"}}, "target": "the molecule itself", "assay": "Native PAGE, self-association; the cell continues below as 'dimer ~7 forms visible from monomer to multimer'", "excerpt": "Native PAGE was run for information of rhGALC formations at neutral pH. […] Final product TG1106 was compared to rhGALC in-house standard StG03 and the pattern was similar. It could be that the lowest band (apparent MW 80-100 kDa) is rhGALC monomer and the second band is rhGALC dimer, followed by formations adding on more rhGALC monomers and/or dimers. Up to seven forms of rhGALC were visualized on the gel. rhGALC dimer was the most pronounced independent on load. An earlier electron microscopy study has verified that several forms exist of which the major form has a diameter of ˜20 nm, which could correspond to rhGALC dimer."}
{"protein": "B1", "values": [{"measurement": "binding result", "value": "binds"}]}
